From US20240102068A1, “C-GLYCOSYLTRANSFERASE VARIANTS AND USE THEREOF” (KOREA ADVANCED INSTITUTE OF SCIENCE AND TECHNOLOGY, priority 2021, published 2024) come the findings set out here.

In data set [1] the test system is FK. The experiment in a line: dcII production from FK by C-glycosyltransferase candidates and GtCGT mutants in FK-producing E. coli, flask culture. It is filed as cell-based. To be noted: mutants transformed into FK strains, flask culture. How it is done:
Flask culture was carried out under the following conditions. Colonies were seeded into 10 mL of LB medium supplemented with appropriate concentrations of antibiotics, followed by culture overnight at 37° C. The culture fluid thus prepared was passaged into a 250 mL baffled flask containing 50 mL of R/2 medium supplemented with 3 g/L yeast extract and 20 g/L glucose (with 0.45 g/L ascorbic acid if necessary), followed by culture at 30° C. and 200 rpm. The composition of R/2 medium (pH 6.8) was as follows (per liter): 2 g of (NH4)2HPO4, 6.75 g of KH2PO4, 0.85 g of citric acid, 0.7 g of MgSO4·7H2O, and 5 ml of trace metal solution (TMS) [10 g of FeSO4·7H2O, 2.25 g of ZnSO4·7H2O, 1 g of CuSO4·5H2O, 0.5 g of MnSO4·5H2O, 0.23 g of Na2B4O7·10H2O, 2 g of CaCl2·2H2O, and 0.1 g of (NH4)6Mo7O24 per liter of 5 M HCl]. When OD600 of the culture fluid reached 0.6-0.8, 1 mM isopropyl β-D-1-thiogalactopyranoside (IPTG) was added to induce exogenous gene expression, followed by culture for 48 hours.
After culture, production analysis was performed under the following conditions. After flask culture, 50 mL of the culture fluid was centrifuged at 4,000 g for 30 minutes, and then the supernatant was desalted and concentrated. Here, Oasis HLB cartridges (Water) were used. The supernatant was concentrated 1-fold for FK, 30-fold for KA, 45-fold for dell, and 200-fold for carminic acid. The concentrated sample was re-dissolved in an appropriate volume of DMSO and impurities were then removed therefrom using a 0.22 μm PTFE filter. The prepared sample was analyzed by MS (LC/MSD VL; Agilent) coupled with HPLC (1100 series; Agilent). An Eclipse XDB-C18 column was used, 0.1% formic acid was used as buffer A, and methanol was used as buffer B. Analysis was performed in an ESI negative mode. For more accurate analysis of carminic acid, LC-MS/MS was performed using an HPLC Triple Quadrupole Mass Spectrometer (LCMS-8050, Shimadzu) (MRM mode).
Flask culture started by seeding colonies from LB agar plates into test tubes containing 10 mL of LB. As such, an appropriate concentration of antibiotics was added, followed by culture overnight at 37° C. at 220 rpm. 1 mL of the seed culture thus prepared was inoculated into a 250 mL baffled flask containing 50 mL of R/2 medium (supplemented with 3 g/L yeast extract and 20 g/L glucose), followed by culture at 30° C. and 200 rpm. The composition of R/2 medium was as follows (pH 6.8, per 1 L): 2 g of (NH4)2HPO4, 6.75 g of KH2PO4, 0.85 g of citric acid, 0.8 g of MgSO4·7H2O, and 5 ml of trace metal solution (TMS). The composition of TMS was as follows (based on 0.1 M HCl, per 1 L): 10 g of FeSO4·7H2O, 2.25 g of ZnSO4·7H2O, 1 g of CuSO4·5H2O, 0.58 g of MnSO4·5H2O, 0.02 g of Na2B4O7·10H2O, 2 g of CaCl2·2H2O, and 0.1 g of (NH4)6Mo7O24·4H2O. When OD600 of the culture fluid reached 0.6-0.8, 0.5 mM IPTG was added to induce exogenous enzyme expression, followed by culture for 48 hours. In all experiments for producing flavokermesic acid, kermesic acid, dcII, and carminic acid, 0.45 g/L of ascorbic acid was further added.
The production of carminic acid (CA) from FK was performed by two biosynthesis pathways, both of which require monooxygenase and C-glycosyltransferase. FK may be oxidized into KA or may be C-glycosylated into dcII. […] In order for the enzyme to have activity, however, it must be glycosylated, and since it also has a transmembrane helix and a signal peptide, successful expression in cells such as E. coli is considered difficult.
For the enzymes selected above, pCDF-DcCGT, pCDF-MiCGT, pCDF-SfCGT, pCDF-EnCGT, pCDF-OsCGT, pCDF-FeCGT, pCDF-GmCGT, pCDF-AvCGT, pCDF-AvCGT, pCDF-ZmCGT, and pCDF-GtCGT were constructed, and all genes except for the iroB gene amplified from genomic DNA of E. coli Nissle using the iroB_gib_F primer and the iroB_gib_R primer were artificially synthesized and inserted into the NdeI site of the pCDFDuet-1 plasmid using Gibson assembly. […]

The test system of data set [2] is aloesone. The data set is described as follows: Aloesin production from aloesone by GtCGT and variants in E. coli BL21(DE3), flask culture. It is filed as cell-based. To be noted: for aloesin production increase: compared to conventional concentration of 0.3 μg/L (ALS strain with GtCGT^V93Q/Y193F); for aloesin production: variant on pCDF-RpALS-GtCGT plasmid (additional RpALS), with pWAS-anti-pabA, pRSF-RpALS, pBBR1-zwf. How it is done:
Also, in LC-MS/MS for aloesin analysis, MS (Agilent 6550 iFunnel Q-TOF LC/MS System) coupled with ultra HPLC (UHPLC; 1290 Infinity II LC System; Agilent) was used. Here, an Eclipse-plus C18 column was used, and 0.1% formic acid was used as buffer A, and acetonitrile to which 0.1% formic acid was added was used as buffer B.
Thereafter, in order to test the production of aloesin, the pCDF-GtCGT or pCDF-GtCGT^V93Q/Y193F plasmid was transformed into the BL21(DE3) strain containing pWAS-anti-pabA, pRSF-RpALS, and pBBR1-zwf plasmids, followed by flask culture.
Similarly to the test for increased production of aloesone, RpALS was additionally introduced to increase aloesin production. To this end, pCDF-RpALS-GtCGT^V93Q/Y193F was constructed instead of introducing pCDF-GtCGT^V93Q/Y193F. Specifically, RpALS was amplified from pCDF-RpALS using pCDFDuet F and pCDFDuet R primers, and inserted into the NcoI and BamHI sites of the pCA plasmid through Gibson assembly. Thereafter, four plasmids, namely pRSF-RpALS, pCDF-RpALS-GtCGT^V93Q/Y193F, pWAS-anti-pabA, and pBBR1-zwf, were transformed into E. coli BL21(DE3), which was named an ALS strain.
(§1) Mutagenesis for a specific sequence was performed in the same manner as in Example 2. Here, plasmids containing gene mutants were constructed using pCDF-RpALS-GtCGT^V93Q/Y193F as a template and using primer pairs shown in Table 11 below. The plasmids thus constructed were transformed into the BL21 (DE3) strain along with three plasmids, namely pWAS-anti-pabA, pRSF-RpALS, and pBBR1-zwf, followed by flask culture under the same conditions as in Example 3 using the strains thus constructed. The concentration of aloesin produced was measured in an MRM mode of the HPLC Triple Quadrupole Mass Spectrometer (LCMS-8050, Shimadzu) of the KAIST Biocore Center.
as §1, with “13” for “11”

Substrate in data set [3]: Cc1c(C(=O)O)c(O)cc2c1C(=O)c1c(O)cc(O)cc1C2=O
The experiment in a line: enzyme kinetics of DnrF. It is filed as biochemical, Streptomyces peucetius. The conditions noted are these: other: means ± SD, n = 3.

Where only a bound is given, the exact number is not on record here.

B1: V132A (protein, listed as Gentiana triflora)
chain: MGSLTNNDNLHIFLVCFIGQGVVNPMLRLGKAFASKGLLVTLSAPEIVGTEIRKANNLNDDQPIKVGSGMIRFEFFDDGWESVNGSKPFDVWVYINHLDQTGRQKLPIMLKKHEETGTPVSCLILNPLVPWAADVADSLQIPCATLWVQSCASFSAYYHYHHGLVPFPTESEPEIDVQLPGMPLLKYDEVPDYLHPRTPYPFFGTNILGQFKNLSKNFCILMDTFYELEHEIIDNMCKLCPIKPIGPLFKIPKDPSSNGITGNFMKVDDCKEWLDSRPTSTVVYVSVGSVVYLKQEQVTEMAYGILNSEVSFLWVLRPPSKRIGTEPHVLPEEFWEKAGDRGKVVQWSPQEQVLAHPATVGFLTHCGWNSTQEAISSGVPVITFPQFGDQVTNAKFLVEEFKVGVRLGRGELENRIITRDEVERALREITSGPKAEEVKENALKWKKKAEETVAKGGYSERNLVGFIEEVARKTGTK
On to B1, for which the “KA production compared with wild-type GtCGT” value in data set [1] was “higher KA production than wild-type GtCGT”.

B2: GtCGT V93Q/Y193F/I323S: GtCGT^V93Q/Y193F with additional I323S (Table 10 No. 12) (protein, listed as Gentiana triflora)
chain: MGSLTNNDNLHIFLVCFIGQGVVNPMLRLGKAFASKGLLVTLSAPEIVGTEIRKANNLNDDQPIKVGSGMIRFEFFDDGWESVNGSKPFDVWQYINHLDQTGRQKLPIMLKKHEETGTPVSCLILNPLVPWVADVADSLQIPCATLWVQSCASFSAYYHYHHGLVPFPTESEPEIDVQLPGMPLLKYDEVPDFLHPRTPYPFFGTNILGQFKNLSKNFCILMDTFYELEHEIIDNMCKLCPIKPIGPLFKIPKDPSSNGITGNFMKVDDCKEWLDSRPTSTVVYVSVGSVVYLKQEQVTEMAYGILNSEVSFLWVLRPPSKRSGTEPHVLPEEFWEKAGDRGKVVQWSPQEQVLAHPATVGFLTHCGWNSTQEAISSGVPVITFPQFGDQVTNAKFLVEEFKVGVRLGRGELENRIITRDEVERALREITSGPKAEEVKENALKWKKKAEETVAKGGYSERNLVGFIEEVARKTGTK
In data set [2], B2 had an aloesin production increase not below 25.8 fold and an aloesin production of 7.75 µg/L.

B3: GtCGT V93Q/Y193F/P385A: GtCGT^V93Q/Y193F with additional P385A (Table 12 No. 15) (protein, listed as Gentiana triflora)
chain: MGSLTNNDNLHIFLVCFIGQGVVNPMLRLGKAFASKGLLVTLSAPEIVGTEIRKANNLNDDQPIKVGSGMIRFEFFDDGWESVNGSKPFDVWQYINHLDQTGRQKLPIMLKKHEETGTPVSCLILNPLVPWVADVADSLQIPCATLWVQSCASFSAYYHYHHGLVPFPTESEPEIDVQLPGMPLLKYDEVPDFLHPRTPYPFFGTNILGQFKNLSKNFCILMDTFYELEHEIIDNMCKLCPIKPIGPLFKIPKDPSSNGITGNFMKVDDCKEWLDSRPTSTVVYVSVGSVVYLKQEQVTEMAYGILNSEVSFLWVLRPPSKRIGTEPHVLPEEFWEKAGDRGKVVQWSPQEQVLAHPATVGFLTHCGWNSTQEAISSGVPVITFAQFGDQVTNAKFLVEEFKVGVRLGRGELENRIITRDEVERALREITSGPKAEEVKENALKWKKKAEETVAKGGYSERNLVGFIEEVARKTGTK
In data set [2], B3 came in with an aloesin production increase not below 14.1 fold and an aloesin production of 4.23 µg/L.

B4: Streptomyces peucetius DnrF (aklavinone 12-hydroxylase), wild type, SEQ ID NO: 2 (Streptomyces peucetius) (protein)
chain: MALTKPDVDVLVVGGGLGGLSTALFLARRGARVLLVERHASTSVLPKAAGQNPRTMELFRFGGVADEILATDDIRGAQGDFTIKVVERVGGRVLHSFAESFEELVGATEQCTPMPWALAPQDRVEPVLVAHAAKHGAEIRFATELTSFQAGDDGVTARLRDLGTGAESTVSARYLVAADGPRSAIRESLGITRHGHGTLAHFMGVIFEADLTAVVPPGSTGWYYLQHPDFTGTFGPTDRPNRHTFYVRYDPERGERPEDYTPQRCTELIRLAVDAPGLVPDILDIQAWDMAAYIADRWREGPVLLVGDAAKVTPPTGGMGGNTAIGDGFDVAWKLAAVLRGEAGERLLDSYGAERSLVSRLVVDESLAIYAQRMAPHLLGSVPEERGTAQVVLGFRYRSTAVAAEDDDPEPTEDPRRPSGRPGFRAPHVWIEQDGTRRSTVELFGDCWVLLAAPEGGAWGQAAARAAADLGVRLDVHLVGRDVAAPSGELTRTYGIGRAGASLVRPDGVVAWRTAVAPGAEAQDQLSTLLTRLLAR
notes: purification details not in the excerpts
For the molecule B4, in data set [3], the Km is 56.75 ± 4.68 µM, the Vmax came out at 0.99 µM/min and the Vmax/Km is 0.0175 min⁻¹.
